Test results taken from PMC6484116, “The NifZ accessory protein has an equivalent function in maturation of both nitrogenase MoFe protein P-clusters” (The Journal of Biological Chemistry, 2019).
Where “and” joins values, the source holds several entries; their conditions need not be identical. Equal values may be shown once.

Experiments:
[1] = biological target: T1, MoFe protein^StrΔZ (Strep-tagged nitrogenase MoFe protein produced in a nifZ-deletion strain) (Azotobacter vinelandii, UniProt P07328 1-492; P07329 1-523); experiment: affinity purification with mass spectrometry; MoFe protein^StrΔZ isolated on Strep-Tactin (STAC) from cell extract, then Q-Sepharose anion exchange (200-500 mM NaCl gradient); fractions on SDS-PAGE, Coomassie, densitometry; bands identified by MALDI; also after incubating the extract 0-240 min with 36 mM Na2S2O4 at 30 °C (NifW slowly dissociates); details: partners not purified
T1 construct: nitrogenase MoFe protein α-subunit (NifD), Azotobacter vinelandii; Strep-encoding tag incorporated into the N-terminal coding region; nitrogenase MoFe protein β-subunit (NifK), Azotobacter vinelandii; A mixed population: αβ-units hold either an immature P-cluster without FeMo-cofactor or a mature P-cluster with FeMo-cofactor; also called MoFe^StrΔZ; α2β2 heterotetramer; source: A. vinelandii …
T1 sequence (looked up) 1: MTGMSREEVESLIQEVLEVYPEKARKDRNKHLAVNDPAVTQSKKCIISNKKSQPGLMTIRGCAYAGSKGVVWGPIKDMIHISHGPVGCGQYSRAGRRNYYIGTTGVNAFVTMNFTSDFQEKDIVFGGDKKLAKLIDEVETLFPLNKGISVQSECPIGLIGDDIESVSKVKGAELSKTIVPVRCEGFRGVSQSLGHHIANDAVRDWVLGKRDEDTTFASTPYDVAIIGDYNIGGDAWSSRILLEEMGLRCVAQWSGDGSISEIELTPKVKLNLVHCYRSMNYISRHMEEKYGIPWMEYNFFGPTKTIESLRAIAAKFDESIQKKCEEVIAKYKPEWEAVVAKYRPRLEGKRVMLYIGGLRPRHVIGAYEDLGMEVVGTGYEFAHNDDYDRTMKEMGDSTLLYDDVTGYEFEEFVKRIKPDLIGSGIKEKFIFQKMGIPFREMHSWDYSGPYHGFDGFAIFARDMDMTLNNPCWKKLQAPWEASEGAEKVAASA
T1 sequence (looked up) 2: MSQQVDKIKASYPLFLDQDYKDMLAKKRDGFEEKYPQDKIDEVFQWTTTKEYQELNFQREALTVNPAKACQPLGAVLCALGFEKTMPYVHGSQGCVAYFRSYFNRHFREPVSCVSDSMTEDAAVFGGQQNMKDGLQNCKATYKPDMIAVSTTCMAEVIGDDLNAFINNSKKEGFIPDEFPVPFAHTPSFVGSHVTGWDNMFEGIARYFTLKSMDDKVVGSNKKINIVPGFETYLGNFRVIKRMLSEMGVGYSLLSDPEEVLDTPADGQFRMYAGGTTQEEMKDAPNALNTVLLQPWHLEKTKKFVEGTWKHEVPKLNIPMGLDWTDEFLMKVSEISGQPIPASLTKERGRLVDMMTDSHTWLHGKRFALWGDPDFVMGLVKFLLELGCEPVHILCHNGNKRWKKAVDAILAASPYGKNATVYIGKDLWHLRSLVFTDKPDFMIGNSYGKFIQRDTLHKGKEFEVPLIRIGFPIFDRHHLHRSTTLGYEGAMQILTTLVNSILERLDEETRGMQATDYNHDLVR

[2] = biological target: T2, MoFe protein^HisΔZ (His-tagged nitrogenase MoFe protein produced in a nifZ-deletion strain) (Azotobacter vinelandii, UniProt P07328 1-492; P07329 1-523); experiment: affinity purification with mass spectrometry; MoFe protein^HisΔZ isolated by IMAC from extract of cells derepressed 4 h, then Q-Sepharose anion exchange (200-500 mM NaCl gradient); fractions on SDS-PAGE, Coomassie, densitometry; bands identified by MALDI; details: partners not purified
T2 construct: nitrogenase MoFe protein α-subunit (NifD), Azotobacter vinelandii; polyhistidine-encoding tag incorporated into the N-terminal coding region; nitrogenase MoFe protein β-subunit (NifK), Azotobacter vinelandii; A mixed population: αβ-units hold either an immature P-cluster without FeMo-cofactor or a mature P-cluster with FeMo-cofactor; also called MoFe^His protein; α2β2 heterotetramer; source: A. …
T2 sequence (looked up) 1: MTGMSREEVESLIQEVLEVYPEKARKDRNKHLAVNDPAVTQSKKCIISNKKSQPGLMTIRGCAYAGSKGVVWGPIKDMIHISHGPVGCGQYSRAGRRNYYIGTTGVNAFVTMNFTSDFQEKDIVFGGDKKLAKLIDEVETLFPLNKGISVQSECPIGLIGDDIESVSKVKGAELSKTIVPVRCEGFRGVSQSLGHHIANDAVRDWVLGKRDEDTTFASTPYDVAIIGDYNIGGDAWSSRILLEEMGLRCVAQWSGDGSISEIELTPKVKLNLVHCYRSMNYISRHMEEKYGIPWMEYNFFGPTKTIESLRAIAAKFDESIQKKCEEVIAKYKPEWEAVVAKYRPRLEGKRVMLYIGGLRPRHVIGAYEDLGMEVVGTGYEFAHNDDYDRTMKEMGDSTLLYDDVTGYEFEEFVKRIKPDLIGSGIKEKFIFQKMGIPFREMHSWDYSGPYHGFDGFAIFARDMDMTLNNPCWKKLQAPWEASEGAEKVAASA
T2 sequence (looked up) 2: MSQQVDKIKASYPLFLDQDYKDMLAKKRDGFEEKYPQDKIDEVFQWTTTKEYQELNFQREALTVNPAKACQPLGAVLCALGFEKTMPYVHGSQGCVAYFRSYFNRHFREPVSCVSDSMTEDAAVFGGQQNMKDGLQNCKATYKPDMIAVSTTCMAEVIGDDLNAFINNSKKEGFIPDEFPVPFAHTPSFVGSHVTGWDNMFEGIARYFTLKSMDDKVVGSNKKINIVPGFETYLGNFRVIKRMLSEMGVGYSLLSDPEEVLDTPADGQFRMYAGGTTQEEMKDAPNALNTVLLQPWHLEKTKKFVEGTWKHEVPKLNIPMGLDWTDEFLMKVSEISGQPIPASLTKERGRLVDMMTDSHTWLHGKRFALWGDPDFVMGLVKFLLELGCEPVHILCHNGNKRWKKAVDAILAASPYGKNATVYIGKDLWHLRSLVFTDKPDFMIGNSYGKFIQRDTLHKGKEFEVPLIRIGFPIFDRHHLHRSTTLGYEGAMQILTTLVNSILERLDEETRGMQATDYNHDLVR

- stoichiometry N [1]: ~1 NifW per α2β2 heterotetramer and ~2 NifW per α2β2 heterotetramer
- stoichiometry N [2]: ~1 NifW per α2β2 heterotetramer and 2 NifW per α2β2 heterotetramer
B1: NifW (accessory protein, endogenous) (natural protein, UniProt P14888 1-115, looked up)
chain: MTVQPFSPDSDLTLDEAMDELVSAEDFLEFFGVPFDQDVVHVNRLHIMQRYHDYLSKAGDLDEHDDQARYAVFQKLLARAYLDFVESDALTEKVFKVFRMHEPQKTFVSIDQLLS
notes: NifW, Azotobacter vinelandii; also called NifW assembly factor; source: endogenous, A. vinelandii DJ1182 or DJ2111 cell extract; co-purified with MoFe protein
